The text below walks through data of publication PMC4872540, “Structural insight into antibody-mediated antagonism of the Glucagon-like peptide-1 Receptor” (Scientific Reports, 2016).

In this test the target is human GLP-1R (human, UniProt P43220). In words: cell-based or functional assay.
Chain of human GLP-1R (P43220 24-463): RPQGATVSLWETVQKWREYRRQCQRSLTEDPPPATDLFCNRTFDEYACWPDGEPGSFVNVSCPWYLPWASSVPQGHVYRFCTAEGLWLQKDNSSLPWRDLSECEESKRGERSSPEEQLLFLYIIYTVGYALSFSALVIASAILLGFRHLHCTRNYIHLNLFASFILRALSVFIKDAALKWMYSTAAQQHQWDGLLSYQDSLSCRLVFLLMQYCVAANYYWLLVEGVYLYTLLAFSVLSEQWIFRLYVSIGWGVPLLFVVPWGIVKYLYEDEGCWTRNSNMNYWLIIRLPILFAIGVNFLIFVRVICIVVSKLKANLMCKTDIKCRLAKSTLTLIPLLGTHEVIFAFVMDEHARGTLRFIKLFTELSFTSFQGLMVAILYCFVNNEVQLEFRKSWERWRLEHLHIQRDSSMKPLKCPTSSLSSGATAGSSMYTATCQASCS

B1: mAb 3F52 (antibody, V domains shown)
VH: DVQLQESGPGLVKPSQSLSLTCTVTGYSITSTYDWHWIRHFPGNILEWMGYISYSGSTNYNPSLKSRISITHDTSKNRFFLKLNSVTSEDTATYYCARATASFYDGSYYFDYWGQGTTLTVSS
VL: DIQMTQTTSSLSASLGDRVTISCRASQDISNYLNWYQQKPDGTVKLLIYYTSRLHSGVPSRFSGSGSGTDYSLTISSLEQEDVATYFCQQGNTLPFTFGSGTKLEIK
Regarding B1, the “IC50 of inhibition of GLP-1-mediated cAMP accumulation (Flashplate assay, BHK cells over-expressing human GLP-1R); blocks GLP-1 with GLP-1R” value was around 10 nM.
